Experimental data as given in patent US20220048967A1 (published 2022).
Numbered stars: 1 amine (or outer) side, 2 acyl side, 3 side chain; on linkers, the order of the positions; unused ones are H or OH. Square brackets hold non-standard residues; d marks the D form. Side chains are listed from the residue outwards. Ends that are not written are not given here. * marks the point of attachment. C20 diacid = O=C(O)CCCCCCCCCCCCCCCCCCC(=O)*; γGlu = O=C(O)[C@H](CCC(=O)[*:2])N[*:1]; AEEA = NCCOCCOCC(=O)O; Aib = CC(C)(N)C(=O)O

T1: human GIP receptor (human, UniProt P48546 22-466)
T1 sequence (looked up): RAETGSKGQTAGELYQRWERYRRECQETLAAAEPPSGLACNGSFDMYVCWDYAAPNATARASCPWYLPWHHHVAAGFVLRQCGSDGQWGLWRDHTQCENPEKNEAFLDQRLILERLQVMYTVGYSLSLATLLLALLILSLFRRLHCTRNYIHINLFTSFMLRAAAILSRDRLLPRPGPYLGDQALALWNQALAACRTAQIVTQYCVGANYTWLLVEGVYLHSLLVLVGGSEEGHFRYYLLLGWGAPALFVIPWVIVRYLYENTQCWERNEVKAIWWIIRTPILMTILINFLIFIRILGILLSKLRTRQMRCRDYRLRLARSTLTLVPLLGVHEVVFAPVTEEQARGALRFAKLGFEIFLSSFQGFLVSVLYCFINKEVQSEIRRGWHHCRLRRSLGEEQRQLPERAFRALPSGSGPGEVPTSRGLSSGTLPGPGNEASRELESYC

B1: Example 48 (peptide)
peptide: Y[Aib]EGTFTSDYSILLDKIAQ[Aib]AFIEYLIEGGPSSGAPPPK([AEEA-AEEA-γGlu-C20 diacid])-NH2
modifications: N-terminus assumed
SMILES: CC[C@H](C)[C@H](NC(=O)[C@H](CCCCN)NC(=O)[C@H](CC(=O)O)NC(=O)[C@H](CC(C)C)NC(=O)[C@H](CC(C)C)NC(=O)[C@@H](NC(=O)[C@H](CO)NC(=O)[C@H](Cc1ccc(O)cc1)NC(=O)[C@H](CC(=O)O)NC(=O)[C@H](CO)NC(=O)[C@@H](NC(=O)[C@H](Cc1ccccc1)NC(=O)[C@@H](NC(=O)CNC(=O)[C@H](CCC(=O)O)NC(=O)C(C)(C)NC(=O)[C@@H](N)Cc1ccc(O)cc1)[C@@H](C)O)[C@@H](C)O)[C@@H](C)CC)C(=O)N[C@@H](C)C(=O)N[C@@H](CCC(N)=O)C(=O)NC(C)(C)C(=O)N[C@@H](C)C(=O)N[C@@H](Cc1ccccc1)C(=O)N[C@H](C(=O)N[C@@H](CCC(=O)O)C(=O)N[C@@H](Cc1ccc(O)cc1)C(=O)N[C@@H](CC(C)C)C(=O)N[C@H](C(=O)N[C@@H](CCC(=O)O)C(=O)NCC(=O)NCC(=O)N1CCC[C@H]1C(=O)N[C@@H](CO)C(=O)N[C@@H](CO)C(=O)NCC(=O)N[C@@H](C)C(=O)N1CCC[C@H]1C(=O)N1CCC[C@H]1C(=O)N1CCC[C@H]1C(=O)N[C@@H](CCCCNC(=O)COCCOCCNC(=O)COCCOCCNC(=O)CC[C@H](NC(=O)CCCCCCCCCCCCCCCCCCC(=O)O)C(=O)O)C(N)=O)[C@@H](C)CC)[C@@H](C)CC
B2: Example 45 (peptide)
peptide: Y[Aib]EGTFTSDYSILLDKIAQ[Aib]AFIEYLIEGGPSSGAK([AEEA-AEEA-γGlu-C20 diacid])PPS-NH2
modifications: N-terminus assumed
SMILES: CC[C@H](C)[C@H](NC(=O)[C@H](CCCCN)NC(=O)[C@H](CC(=O)O)NC(=O)[C@H](CC(C)C)NC(=O)[C@H](CC(C)C)NC(=O)[C@@H](NC(=O)[C@H](CO)NC(=O)[C@H](Cc1ccc(O)cc1)NC(=O)[C@H](CC(=O)O)NC(=O)[C@H](CO)NC(=O)[C@@H](NC(=O)[C@H](Cc1ccccc1)NC(=O)[C@@H](NC(=O)CNC(=O)[C@H](CCC(=O)O)NC(=O)C(C)(C)NC(=O)[C@@H](N)Cc1ccc(O)cc1)[C@@H](C)O)[C@@H](C)O)[C@@H](C)CC)C(=O)N[C@@H](C)C(=O)N[C@@H](CCC(N)=O)C(=O)NC(C)(C)C(=O)N[C@@H](C)C(=O)N[C@@H](Cc1ccccc1)C(=O)N[C@H](C(=O)N[C@@H](CCC(=O)O)C(=O)N[C@@H](Cc1ccc(O)cc1)C(=O)N[C@@H](CC(C)C)C(=O)N[C@H](C(=O)N[C@@H](CCC(=O)O)C(=O)NCC(=O)NCC(=O)N1CCC[C@H]1C(=O)N[C@@H](CO)C(=O)N[C@@H](CO)C(=O)NCC(=O)N[C@@H](C)C(=O)N[C@@H](CCCCNC(=O)COCCOCCNC(=O)COCCOCCNC(=O)CC[C@H](NC(=O)CCCCCCCCCCCCCCCCCCC(=O)O)C(=O)O)C(=O)N1CCC[C@H]1C(=O)N1CCC[C@H]1C(=O)N[C@@H](CO)C(N)=O)[C@@H](C)CC)[C@@H](C)CC
B3: Example 49 (peptide)
peptide: Y[Aib]EGTFTSDYSILLDKIAQ[Aib]AFIEYLIEGGPSSGAPPPSK([AEEA-AEEA-γGlu-C20 diacid])-NH2
modifications: N-terminus assumed
SMILES: CC[C@H](C)[C@H](NC(=O)[C@H](CCCCN)NC(=O)[C@H](CC(=O)O)NC(=O)[C@H](CC(C)C)NC(=O)[C@H](CC(C)C)NC(=O)[C@@H](NC(=O)[C@H](CO)NC(=O)[C@H](Cc1ccc(O)cc1)NC(=O)[C@H](CC(=O)O)NC(=O)[C@H](CO)NC(=O)[C@@H](NC(=O)[C@H](Cc1ccccc1)NC(=O)[C@@H](NC(=O)CNC(=O)[C@H](CCC(=O)O)NC(=O)C(C)(C)NC(=O)[C@@H](N)Cc1ccc(O)cc1)[C@@H](C)O)[C@@H](C)O)[C@@H](C)CC)C(=O)N[C@@H](C)C(=O)N[C@@H](CCC(N)=O)C(=O)NC(C)(C)C(=O)N[C@@H](C)C(=O)N[C@@H](Cc1ccccc1)C(=O)N[C@H](C(=O)N[C@@H](CCC(=O)O)C(=O)N[C@@H](Cc1ccc(O)cc1)C(=O)N[C@@H](CC(C)C)C(=O)N[C@H](C(=O)N[C@@H](CCC(=O)O)C(=O)NCC(=O)NCC(=O)N1CCC[C@H]1C(=O)N[C@@H](CO)C(=O)N[C@@H](CO)C(=O)NCC(=O)N[C@@H](C)C(=O)N1CCC[C@H]1C(=O)N1CCC[C@H]1C(=O)N1CCC[C@H]1C(=O)N[C@@H](CO)C(=O)N[C@@H](CCCCNC(=O)COCCOCCNC(=O)COCCOCCNC(=O)CC[C@H](NC(=O)CCCCCCCCCCCCCCCCCCC(=O)O)C(=O)O)C(N)=O)[C@@H](C)CC)[C@@H](C)CC
B4: Example 46 (peptide)
peptide: Y[Aib]EGTFTSDYSILLDKIAQ[Aib]AFIEYLIEGGPSSGAPK([AEEA-AEEA-γGlu-C20 diacid])PS-NH2
modifications: N-terminus assumed
SMILES: CC[C@H](C)[C@H](NC(=O)[C@H](CCCCN)NC(=O)[C@H](CC(=O)O)NC(=O)[C@H](CC(C)C)NC(=O)[C@H](CC(C)C)NC(=O)[C@@H](NC(=O)[C@H](CO)NC(=O)[C@H](Cc1ccc(O)cc1)NC(=O)[C@H](CC(=O)O)NC(=O)[C@H](CO)NC(=O)[C@@H](NC(=O)[C@H](Cc1ccccc1)NC(=O)[C@@H](NC(=O)CNC(=O)[C@H](CCC(=O)O)NC(=O)C(C)(C)NC(=O)[C@@H](N)Cc1ccc(O)cc1)[C@@H](C)O)[C@@H](C)O)[C@@H](C)CC)C(=O)N[C@@H](C)C(=O)N[C@@H](CCC(N)=O)C(=O)NC(C)(C)C(=O)N[C@@H](C)C(=O)N[C@@H](Cc1ccccc1)C(=O)N[C@H](C(=O)N[C@@H](CCC(=O)O)C(=O)N[C@@H](Cc1ccc(O)cc1)C(=O)N[C@@H](CC(C)C)C(=O)N[C@H](C(=O)N[C@@H](CCC(=O)O)C(=O)NCC(=O)NCC(=O)N1CCC[C@H]1C(=O)N[C@@H](CO)C(=O)N[C@@H](CO)C(=O)NCC(=O)N[C@@H](C)C(=O)N1CCC[C@H]1C(=O)N[C@@H](CCCCNC(=O)COCCOCCNC(=O)COCCOCCNC(=O)CC[C@H](NC(=O)CCCCCCCCCCCCCCCCCCC(=O)O)C(=O)O)C(=O)N1CCC[C@H]1C(=O)N[C@@H](CO)C(N)=O)[C@@H](C)CC)[C@@H](C)CC
B5: Example 47 (peptide)
peptide: Y[Aib]EGTFTSDYSILLDKIAQ[Aib]AFIEYLIEGGPSSGAPPK([AEEA-AEEA-γGlu-C20 diacid])S-NH2
modifications: N-terminus assumed
SMILES: CC[C@H](C)[C@H](NC(=O)[C@H](CCCCN)NC(=O)[C@H](CC(=O)O)NC(=O)[C@H](CC(C)C)NC(=O)[C@H](CC(C)C)NC(=O)[C@@H](NC(=O)[C@H](CO)NC(=O)[C@H](Cc1ccc(O)cc1)NC(=O)[C@H](CC(=O)O)NC(=O)[C@H](CO)NC(=O)[C@@H](NC(=O)[C@H](Cc1ccccc1)NC(=O)[C@@H](NC(=O)CNC(=O)[C@H](CCC(=O)O)NC(=O)C(C)(C)NC(=O)[C@@H](N)Cc1ccc(O)cc1)[C@@H](C)O)[C@@H](C)O)[C@@H](C)CC)C(=O)N[C@@H](C)C(=O)N[C@@H](CCC(N)=O)C(=O)NC(C)(C)C(=O)N[C@@H](C)C(=O)N[C@@H](Cc1ccccc1)C(=O)N[C@H](C(=O)N[C@@H](CCC(=O)O)C(=O)N[C@@H](Cc1ccc(O)cc1)C(=O)N[C@@H](CC(C)C)C(=O)N[C@H](C(=O)N[C@@H](CCC(=O)O)C(=O)NCC(=O)NCC(=O)N1CCC[C@H]1C(=O)N[C@@H](CO)C(=O)N[C@@H](CO)C(=O)NCC(=O)N[C@@H](C)C(=O)N1CCC[C@H]1C(=O)N1CCC[C@H]1C(=O)N[C@@H](CCCCNC(=O)COCCOCCNC(=O)COCCOCCNC(=O)CC[C@H](NC(=O)CCCCCCCCCCCCCCCCCCC(=O)O)C(=O)O)C(=O)N[C@@H](CO)C(N)=O)[C@@H](C)CC)[C@@H](C)CC
B6: Example 44 (peptide)
peptide: Y[Aib]EGTFTSDYSILLDKIAQ[Aib]AFIEYLIEGGPSSGK([AEEA-AEEA-γGlu-C20 diacid])PPPS-NH2
modifications: N-terminus assumed
SMILES: CC[C@H](C)[C@H](NC(=O)[C@H](CCCCN)NC(=O)[C@H](CC(=O)O)NC(=O)[C@H](CC(C)C)NC(=O)[C@H](CC(C)C)NC(=O)[C@@H](NC(=O)[C@H](CO)NC(=O)[C@H](Cc1ccc(O)cc1)NC(=O)[C@H](CC(=O)O)NC(=O)[C@H](CO)NC(=O)[C@@H](NC(=O)[C@H](Cc1ccccc1)NC(=O)[C@@H](NC(=O)CNC(=O)[C@H](CCC(=O)O)NC(=O)C(C)(C)NC(=O)[C@@H](N)Cc1ccc(O)cc1)[C@@H](C)O)[C@@H](C)O)[C@@H](C)CC)C(=O)N[C@@H](C)C(=O)N[C@@H](CCC(N)=O)C(=O)NC(C)(C)C(=O)N[C@@H](C)C(=O)N[C@@H](Cc1ccccc1)C(=O)N[C@H](C(=O)N[C@@H](CCC(=O)O)C(=O)N[C@@H](Cc1ccc(O)cc1)C(=O)N[C@@H](CC(C)C)C(=O)N[C@H](C(=O)N[C@@H](CCC(=O)O)C(=O)NCC(=O)NCC(=O)N1CCC[C@H]1C(=O)N[C@@H](CO)C(=O)N[C@@H](CO)C(=O)NCC(=O)N[C@@H](CCCCNC(=O)COCCOCCNC(=O)COCCOCCNC(=O)CC[C@H](NC(=O)CCCCCCCCCCCCCCCCCCC(=O)O)C(=O)O)C(=O)N1CCC[C@H]1C(=O)N1CCC[C@H]1C(=O)N1CCC[C@H]1C(=O)N[C@@H](CO)C(N)=O)[C@@H](C)CC)[C@@H](C)CC

target: T1, human GIP receptor; assay: cell-based or functional assay

Question: B1 was tested. Which “hGIPR cAMP EC50 ratio” value did it give?
Answer: 0.863

Question: What about the “hGIPR cAMP Rel EC50” value of the same binder?
Answer: 168 pM

Question: B2 was tested. Which “hGIPR cAMP EC50 ratio” value did it give?
Answer: 1.75

Question: And the “hGIPR cAMP Rel EC50” value?
Answer: 106 pM

Question: For B3, which “hGIPR cAMP EC50 ratio” value is on record?
Answer: 1.69

Question: What about the “hGIPR cAMP Rel EC50” value of the same binder?
Answer: 86.8 pM

Question: With B4 as the binder, how does the “hGIPR cAMP EC50 ratio” value read?
Answer: 0.828

Question: What about the “hGIPR cAMP Rel EC50” value of the same binder?
Answer: 172 pM

Question: How did the “hGIPR cAMP EC50 ratio” value turn out when B5 was run?
Answer: 0.654

Question: What about the “hGIPR cAMP Rel EC50” value of the same binder?
Answer: 287 pM

Question: Which results are given for B6?
Answer: hGIPR cAMP EC50 ratio: 1.11; hGIPR cAMP Rel EC50: 128 pM

target: human GLP-1 receptor (human, UniProt P43220 24-463); assay: cell-based or functional assay

Question: Which results are given for B1?
Answer: hGLP1R cAMP EC50 ratio: 0.0966; hGLP1R cAMP Rel EC50: 691 pM

Question: What does the source list for B2?
Answer: hGLP1R cAMP EC50 ratio: 0.0569; hGLP1R cAMP Rel EC50: 1030 pM

Question: With B3 as the binder, how does the “hGLP1R cAMP EC50 ratio” value read?
Answer: 0.112

Question: And the “hGLP1R cAMP Rel EC50” value?
Answer: 597 pM

Question: How did the “hGLP1R cAMP EC50 ratio” value turn out when B4 was run?
Answer: 0.0969

Question: And the “hGLP1R cAMP Rel EC50” value?
Answer: 687 pM

Question: With B5 as the binder, how does the “hGLP1R cAMP EC50 ratio” value read?
Answer: 0.089

Question: And the “hGLP1R cAMP Rel EC50” value?
Answer: 702 pM

Question: Which results are given for B6?
Answer: hGLP1R cAMP EC50 ratio: 0.0918; hGLP1R cAMP Rel EC50: 752 pM
